Measured values reported in patent US20110165175A1 (AFFIMED THERAPEUTICS, published 2011).
Where “and” joins values, the source holds several entries; their conditions need not be identical. Equal entries are not always repeated.

Experiments:
[1] = target: platelet integrin receptor GPIIb/IIIa (alpha IIb/beta 3), activated state, on ADP-activated human platelets (human) (UniProt P08514); assay: flow cytometry, inhibition of fibrinogen binding to ADP-activated platelets in whole blood
[2] = target: T1, platelet integrin receptor GPIIb/IIIa (alpha IIb/beta 3), activated state, on ADP-activated human platelets (human, UniProt P08514 32-1039; P05106 27-788); assay: FACS, inhibition of fibrinogen binding to activated human platelets
T1 construct: whole, on cells; The assays were on whole platelets

[3] = target: platelet integrin receptor GPIIb/IIIa (alpha IIb/beta 3), activated state, on ADP-activated human platelets (human) (UniProt P08514); assay: flow cytometry, ADP-activated platelets in diluted human whole blood, scFv at 3.9×10^-2 µg/mL, background of secondary reagent subtracted
[4] = target: platelet integrin receptor GPIIb/IIIa (alpha IIb/beta 3), activated state, on ADP-activated human platelets (human) (UniProt P08514); assay: flow cytometry, ADP-activated platelets in diluted human whole blood, scFv at 0.1 µg/mL, background of secondary reagent subtracted
[5] = target: platelet integrin receptor GPIIb/IIIa (alpha IIb/beta 3), activated state, on ADP-activated human platelets (human) (UniProt P08514); assay: flow cytometry, inhibition of fibrinogen binding to ADP-activated platelets in whole blood, 4-parameter logistic fit
[6] = target: platelet integrin receptor GPIIb/IIIa (alpha IIb/beta 3), non-activated state, on non-activated human platelets (human) (UniProt P08514); assay: flow cytometry, non-activated platelets in diluted human whole blood, scFv at 4.9×10^-3 µg/mL, background of secondary reagent subtracted
[7] = target: platelet integrin receptor GPIIb/IIIa (alpha IIb/beta 3), activated state, on ADP-activated human platelets (human) (UniProt P08514); assay: flow cytometry, ADP-activated platelets in diluted human whole blood, scFv at 4.9×10^-3 µg/mL, background of secondary reagent subtracted
[8] = target: platelet integrin receptor GPIIb/IIIa (alpha IIb/beta 3), activated state, on ADP-activated human platelets (human) (UniProt P08514); assay: flow cytometry, ADP-activated platelets in diluted human whole blood, scFv at 9.8×10^-3 µg/mL, background of secondary reagent subtracted
[9] = target: platelet integrin receptor GPIIb/IIIa (alpha IIb/beta 3), non-activated state, on non-activated human platelets (human) (UniProt P08514); assay: flow cytometry, non-activated platelets in diluted human whole blood, scFv at 3.9×10^-2 µg/mL, background of secondary reagent subtracted
[10] = target: platelet integrin receptor GPIIb/IIIa (alpha IIb/beta 3), non-activated state, on non-activated human platelets (human) (UniProt P08514); assay: flow cytometry, non-activated platelets in diluted human whole blood, scFv at 2.0×10^-3 µg/mL as printed, background of secondary reagent subtracted
[11] = target: platelet integrin receptor GPIIb/IIIa (alpha IIb/beta 3), non-activated state, on non-activated human platelets (human) (UniProt P08514); assay: flow cytometry, non-activated platelets in diluted human whole blood, scFv at 9.8×10^-3 µg/mL, background of secondary reagent subtracted
[12] = target: platelet integrin receptor GPIIb/IIIa (alpha IIb/beta 3), activated state, on ADP-activated human platelets (human) (UniProt P08514); assay: flow cytometry, ADP-activated platelets in diluted human whole blood, scFv at 2.0×10^-3 µg/mL as printed, background of secondary reagent subtracted
[13] = target: platelet integrin receptor GPIIb/IIIa (alpha IIb/beta 3), non-activated state, on non-activated human platelets (human) (UniProt P08514); assay: flow cytometry, non-activated platelets in diluted human whole blood, scFv at 0.1 µg/mL, background of secondary reagent subtracted
[14] = target: platelet integrin receptor GPIIb/IIIa (alpha IIb/beta 3), activated state, on ADP-activated human platelets (human) (UniProt P08514); assay: flow cytometry, ratio against non-activated platelets at the same scFv concentration (FIG. 23 B)

B1: ReoPro (abciximab, Centocor/Eli Lily) (Fab, INN chains, looked up, V domains shown)
VH: EVQLQQSGTVLARPGASVKMSCEASGYTFTNYWMHWVKQRPGQGLEWIGAIYPGNSDTSYIQKFKGKAKLTAVTSTTSVYMELSSLTNEDSAVYYCTLYDGYYVFAYWGQGTLVTVSA
VL: EIVLTQSPVTLSVTPGDSVSLSCRASRDISNNLHWFQQTSHESPRLLIKYASQSMSGIPSRFSGSGSGTDFTLSINSVETEDFGMYFCQQTNSWPYTFGGGTKLEIK
modifications: Fab
EC50 [1]: 0.16 µg/mL

B2: MB9 scFv (scFv)
scFv: MAEVQLVQSGAEVNKPGASVKVSCKASGYTFTGYYMHWVRQAPGQGLEWMGWINPNSGGTNYAQKFQGWVTMTRDTSISTAYMELSRLRSDDTAVYYCARGRALYNRNDRSPNWFDPWGQGTLVTVSSGSASAPTLKLEEGEFSEARVQAVLTQPPSVSVAPGQTARITCGGNNIGSKSVQWYQQKPGQAPVLVVYDDSDRPSGIPERFSGSNSGNMATLTISRVEAGDEADYYCQVWDSSSDHVVFGGGTKLTVLGQPKAAPSVTLFPPSAAAGSHHHHHH
notes: Human scFv from the natural IgM phage library, 31 kDa, detected through a His tag; also called clone MB9; MA2
IC50 [2]: 1.1 µg/mL and 35 nM

B3: human anti-gpIIb/IIIa single chain antibody (scFv) SCE5 (scFv, V domains shown, not shown: small tags and cut ends)
VH: QVQLQESGGGLVQPGGSLRLSCAASGFMFSRYAMSWVRQAPGKGPEWVSGISGSGGSTYYADSVKGRFTVSRDNSKNTLYLQMNSLRAEDTAVYYCARGATYTSRSDVPDQTSFDYWGQGTLVTVSS
VL: SSELTQDPAVSVALGQTVRITCQGDSLRNFYASWYQQKPGQAPTLVIYGLSKRPSGIPDRFSASSSGNTASLTITGAQAEDEADYYCLLYYGGGQQGVFGGGTKLTVL
modifications: linker and His tag
fluorescence signal value [3]: 2.84
fluorescence signal value [4]: 4.15
EC50 [5]: 0.94 µg/mL
fluorescence signal value [6]: 0.013
concentration at which the inhibitory effect starts [1]: 0.1 to 0.2 µg/mL
concentration of maximal inhibitory effect [1]: 10 µg/mL
fluorescence signal value [7]: 0.265
fluorescence signal value [8]: 0.612
fluorescence signal value [9]: 0.05
fluorescence signal value [10]: 0.027
fluorescence signal value [11]: 0.015
fluorescence signal value [12]: 1.33
fluorescence signal value [13]: 0.16
fluorescence on activated platelets divided by fluorescence on non-activated platelets [14]: 10 times
